In patent US20140213513A1 (Sanofi, priority 2012, published 2014):
*1 amine or outer side, *2 acyl side, *3 side chain or, on linkers, in order; H or OH if unused. Where no end group is shown, it is not given here. Side-chain parts run from the residue outwards. [ ]: non-standard residue; d: D form. The star is where a group is joined. γGlu = O=C(O)[C@H](CCC(=O)[*:2])N[*:1]; Stearoyl = CCCCCCCCCCCCCCCCCC(=O)*; Palmitoyl = CCCCCCCCCCCCCCCC(=O)*; Aib = CC(C)(N)C(=O)O

What was measured:
Assay in all cases: cell-based or functional assay
human GLP-1 receptor = human GLP-1 receptor (human, UniProt P43220 24-463)
human glucagon receptor = human glucagon receptor (human, UniProt P47871 26-477)
human glucagon receptor, sequence (P47871 26-477): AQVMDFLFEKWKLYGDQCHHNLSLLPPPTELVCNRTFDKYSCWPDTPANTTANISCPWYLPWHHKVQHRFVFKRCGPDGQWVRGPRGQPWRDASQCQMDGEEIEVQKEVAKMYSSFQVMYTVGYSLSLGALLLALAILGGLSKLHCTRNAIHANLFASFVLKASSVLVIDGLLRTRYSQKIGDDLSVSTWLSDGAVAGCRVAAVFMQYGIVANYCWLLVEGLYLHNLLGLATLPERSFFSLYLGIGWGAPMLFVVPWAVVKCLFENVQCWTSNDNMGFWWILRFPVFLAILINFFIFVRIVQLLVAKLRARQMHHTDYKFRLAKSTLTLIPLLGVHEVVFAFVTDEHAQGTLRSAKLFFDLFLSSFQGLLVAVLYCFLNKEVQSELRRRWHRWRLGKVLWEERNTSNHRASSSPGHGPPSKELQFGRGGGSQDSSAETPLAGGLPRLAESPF

human GIP receptor = target: T1, human GIP receptor (human, UniProt P48546 22-466)
T1 sequence (looked up): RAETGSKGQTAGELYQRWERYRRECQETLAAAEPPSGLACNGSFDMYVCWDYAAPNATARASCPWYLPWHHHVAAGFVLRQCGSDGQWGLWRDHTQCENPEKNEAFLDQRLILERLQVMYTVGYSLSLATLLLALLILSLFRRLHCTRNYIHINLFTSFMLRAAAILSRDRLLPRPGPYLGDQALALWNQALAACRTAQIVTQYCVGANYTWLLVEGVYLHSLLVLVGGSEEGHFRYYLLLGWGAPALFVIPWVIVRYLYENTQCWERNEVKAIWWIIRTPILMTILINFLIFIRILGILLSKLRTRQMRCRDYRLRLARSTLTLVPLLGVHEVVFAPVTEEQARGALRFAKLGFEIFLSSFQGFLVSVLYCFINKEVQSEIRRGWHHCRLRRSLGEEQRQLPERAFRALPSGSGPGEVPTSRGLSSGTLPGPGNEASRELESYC

B1: exendin-4 peptide analogue SEQ ID NO: 62 (peptide)
peptide: Y[Aib]EGTFTSDLSIQK([γGlu-Stearoyl])EEEAVKLFIEWLKAGGPSSGAPPPS-NH2
modifications: N-terminus assumed
SMILES: CCCCCCCCCCCCCCCCCC(=O)N[C@@H](CCC(=O)NCCCC[C@H](NC(=O)[C@H](CCC(N)=O)NC(=O)[C@@H](NC(=O)[C@H](CO)NC(=O)[C@H](CC(C)C)NC(=O)[C@H](CC(=O)O)NC(=O)[C@H](CO)NC(=O)[C@@H](NC(=O)[C@H](Cc1ccccc1)NC(=O)[C@@H](NC(=O)CNC(=O)[C@H](CCC(=O)O)NC(=O)C(C)(C)NC(=O)[C@@H](N)Cc1ccc(O)cc1)[C@@H](C)O)[C@@H](C)O)[C@@H](C)CC)C(=O)N[C@@H](CCC(=O)O)C(=O)N[C@@H](CCC(=O)O)C(=O)N[C@@H](CCC(=O)O)C(=O)N[C@@H](C)C(=O)N[C@H](C(=O)N[C@@H](CCCCN)C(=O)N[C@@H](CC(C)C)C(=O)N[C@@H](Cc1ccccc1)C(=O)N[C@H](C(=O)N[C@@H](CCC(=O)O)C(=O)N[C@@H](Cc1c[nH]c2ccccc12)C(=O)N[C@@H](CC(C)C)C(=O)N[C@@H](CCCCN)C(=O)N[C@@H](C)C(=O)NCC(=O)NCC(=O)N1CCC[C@H]1C(=O)N[C@@H](CO)C(=O)N[C@@H](CO)C(=O)NCC(=O)N[C@@H](C)C(=O)N1CCC[C@H]1C(=O)N1CCC[C@H]1C(=O)N1CCC[C@H]1C(=O)N[C@@H](CO)C(N)=O)[C@@H](C)CC)C(C)C)C(=O)O
Human GLP-1 receptor
  EC50 hGLP-1 R: 0.0076 nM
Human glucagon receptor
  EC50 hGLUC R: > 1000 nM
Human GIP receptor
  EC50 hGIP R: 0.0067 nM

B2: exendin-4 peptide analogue SEQ ID NO: 61 (peptide)
peptide: Y[Aib]QGTFTSDLSKQK([γGlu-Palmitoyl])DSKAAQDFIEWLKAGGPSSGAPPPS-NH2
modifications: N-terminus assumed
SMILES: CCCCCCCCCCCCCCCC(=O)N[C@@H](CCC(=O)NCCCC[C@H](NC(=O)[C@H](CCC(N)=O)NC(=O)[C@H](CCCCN)NC(=O)[C@H](CO)NC(=O)[C@H](CC(C)C)NC(=O)[C@H](CC(=O)O)NC(=O)[C@H](CO)NC(=O)[C@@H](NC(=O)[C@H](Cc1ccccc1)NC(=O)[C@@H](NC(=O)CNC(=O)[C@H](CCC(N)=O)NC(=O)C(C)(C)NC(=O)[C@@H](N)Cc1ccc(O)cc1)[C@@H](C)O)[C@@H](C)O)C(=O)N[C@@H](CC(=O)O)C(=O)N[C@@H](CO)C(=O)N[C@@H](CCCCN)C(=O)N[C@@H](C)C(=O)N[C@@H](C)C(=O)N[C@@H](CCC(N)=O)C(=O)N[C@@H](CC(=O)O)C(=O)N[C@@H](Cc1ccccc1)C(=O)N[C@H](C(=O)N[C@@H](CCC(=O)O)C(=O)N[C@@H](Cc1c[nH]c2ccccc12)C(=O)N[C@@H](CC(C)C)C(=O)N[C@@H](CCCCN)C(=O)N[C@@H](C)C(=O)NCC(=O)NCC(=O)N1CCC[C@H]1C(=O)N[C@@H](CO)C(=O)N[C@@H](CO)C(=O)NCC(=O)N[C@@H](C)C(=O)N1CCC[C@H]1C(=O)N1CCC[C@H]1C(=O)N1CCC[C@H]1C(=O)N[C@@H](CO)C(N)=O)[C@@H](C)CC)C(=O)O
Human GLP-1 receptor
  EC50 hGLP-1 R: 0.0024 nM
Human glucagon receptor
  EC50 hGLUC R: 0.0061 nM
Human GIP receptor
  EC50 hGIP R: 0.0214 nM

B3: exendin-4 peptide analogue SEQ ID NO: 64 (peptide)
peptide: Y[Aib]EGTFTSDLSIQK([γGlu-Stearoyl])EERAVRLFIEWLKAGGPSSGAPPPS-NH2
modifications: N-terminus assumed
SMILES: CCCCCCCCCCCCCCCCCC(=O)N[C@@H](CCC(=O)NCCCC[C@H](NC(=O)[C@H](CCC(N)=O)NC(=O)[C@@H](NC(=O)[C@H](CO)NC(=O)[C@H](CC(C)C)NC(=O)[C@H](CC(=O)O)NC(=O)[C@H](CO)NC(=O)[C@@H](NC(=O)[C@H](Cc1ccccc1)NC(=O)[C@@H](NC(=O)CNC(=O)[C@H](CCC(=O)O)NC(=O)C(C)(C)NC(=O)[C@@H](N)Cc1ccc(O)cc1)[C@@H](C)O)[C@@H](C)O)[C@@H](C)CC)C(=O)N[C@@H](CCC(=O)O)C(=O)N[C@@H](CCC(=O)O)C(=O)N[C@@H](CCCNC(=N)N)C(=O)N[C@@H](C)C(=O)N[C@H](C(=O)N[C@@H](CCCNC(=N)N)C(=O)N[C@@H](CC(C)C)C(=O)N[C@@H](Cc1ccccc1)C(=O)N[C@H](C(=O)N[C@@H](CCC(=O)O)C(=O)N[C@@H](Cc1c[nH]c2ccccc12)C(=O)N[C@@H](CC(C)C)C(=O)N[C@@H](CCCCN)C(=O)N[C@@H](C)C(=O)NCC(=O)NCC(=O)N1CCC[C@H]1C(=O)N[C@@H](CO)C(=O)N[C@@H](CO)C(=O)NCC(=O)N[C@@H](C)C(=O)N1CCC[C@H]1C(=O)N1CCC[C@H]1C(=O)N1CCC[C@H]1C(=O)N[C@@H](CO)C(N)=O)[C@@H](C)CC)C(C)C)C(=O)O
Human GLP-1 receptor
  EC50 hGLP-1 R: 0.0102 nM
Human glucagon receptor
  EC50 hGLUC R: 75.1 nM
Human GIP receptor
  EC50 hGIP R: 0.0096 nM

B4: exendin-4 peptide analogue SEQ ID NO: 11 (peptide)
peptide: Y[Aib]QGTFTSDLSIQK([γGlu-Palmitoyl])EKR[Aib]A[Aib]EFIEWLKNTGPSSGAPPPS-NH2
modifications: N-terminus assumed
SMILES: CCCCCCCCCCCCCCCC(=O)N[C@@H](CCC(=O)NCCCC[C@H](NC(=O)[C@H](CCC(N)=O)NC(=O)[C@@H](NC(=O)[C@H](CO)NC(=O)[C@H](CC(C)C)NC(=O)[C@H](CC(=O)O)NC(=O)[C@H](CO)NC(=O)[C@@H](NC(=O)[C@H](Cc1ccccc1)NC(=O)[C@@H](NC(=O)CNC(=O)[C@H](CCC(N)=O)NC(=O)C(C)(C)NC(=O)[C@@H](N)Cc1ccc(O)cc1)[C@@H](C)O)[C@@H](C)O)[C@@H](C)CC)C(=O)N[C@@H](CCC(=O)O)C(=O)N[C@@H](CCCCN)C(=O)N[C@@H](CCCNC(=N)N)C(=O)NC(C)(C)C(=O)N[C@@H](C)C(=O)NC(C)(C)C(=O)N[C@@H](CCC(=O)O)C(=O)N[C@@H](Cc1ccccc1)C(=O)N[C@H](C(=O)N[C@@H](CCC(=O)O)C(=O)N[C@@H](Cc1c[nH]c2ccccc12)C(=O)N[C@@H](CC(C)C)C(=O)N[C@@H](CCCCN)C(=O)N[C@@H](CC(N)=O)C(=O)N[C@H](C(=O)NCC(=O)N1CCC[C@H]1C(=O)N[C@@H](CO)C(=O)N[C@@H](CO)C(=O)NCC(=O)N[C@@H](C)C(=O)N1CCC[C@H]1C(=O)N1CCC[C@H]1C(=O)N1CCC[C@H]1C(=O)N[C@@H](CO)C(N)=O)[C@@H](C)O)[C@@H](C)CC)C(=O)O
Human GLP-1 receptor
  EC50 hGLP-1 R: 0.0038 nM
Human glucagon receptor
  EC50 hGLUC R: 0.0669 nM
Human GIP receptor
  EC50 hGIP R: 0.0144 nM

B5: exendin-4 peptide analogue SEQ ID NO: 60 (peptide)
peptide: Y[Aib]QGTFTSDLSKQK([γGlu-Stearoyl])DEEAARLFIEWLKAGGPSSGAPPPS-NH2
modifications: N-terminus assumed
SMILES: CCCCCCCCCCCCCCCCCC(=O)N[C@@H](CCC(=O)NCCCC[C@H](NC(=O)[C@H](CCC(N)=O)NC(=O)[C@H](CCCCN)NC(=O)[C@H](CO)NC(=O)[C@H](CC(C)C)NC(=O)[C@H](CC(=O)O)NC(=O)[C@H](CO)NC(=O)[C@@H](NC(=O)[C@H](Cc1ccccc1)NC(=O)[C@@H](NC(=O)CNC(=O)[C@H](CCC(N)=O)NC(=O)C(C)(C)NC(=O)[C@@H](N)Cc1ccc(O)cc1)[C@@H](C)O)[C@@H](C)O)C(=O)N[C@@H](CC(=O)O)C(=O)N[C@@H](CCC(=O)O)C(=O)N[C@@H](CCC(=O)O)C(=O)N[C@@H](C)C(=O)N[C@@H](C)C(=O)N[C@@H](CCCNC(=N)N)C(=O)N[C@@H](CC(C)C)C(=O)N[C@@H](Cc1ccccc1)C(=O)N[C@H](C(=O)N[C@@H](CCC(=O)O)C(=O)N[C@@H](Cc1c[nH]c2ccccc12)C(=O)N[C@@H](CC(C)C)C(=O)N[C@@H](CCCCN)C(=O)N[C@@H](C)C(=O)NCC(=O)NCC(=O)N1CCC[C@H]1C(=O)N[C@@H](CO)C(=O)N[C@@H](CO)C(=O)NCC(=O)N[C@@H](C)C(=O)N1CCC[C@H]1C(=O)N1CCC[C@H]1C(=O)N1CCC[C@H]1C(=O)N[C@@H](CO)C(N)=O)[C@@H](C)CC)C(=O)O
Human GLP-1 receptor
  EC50 hGLP-1 R: 0.0053 nM
Human glucagon receptor
  EC50 hGLUC R: 0.0091 nM
Human GIP receptor
  EC50 hGIP R: 0.0168 nM

B6: exendin-4 peptide analogue SEQ ID NO: 63 (peptide)
peptide: Y[Aib]EGTFTSDLSKQK([γGlu-Palmitoyl])DKRAAQDFIEWLKAGGPSSGAPPPS-NH2
modifications: N-terminus assumed
SMILES: CCCCCCCCCCCCCCCC(=O)N[C@@H](CCC(=O)NCCCC[C@H](NC(=O)[C@H](CCC(N)=O)NC(=O)[C@H](CCCCN)NC(=O)[C@H](CO)NC(=O)[C@H](CC(C)C)NC(=O)[C@H](CC(=O)O)NC(=O)[C@H](CO)NC(=O)[C@@H](NC(=O)[C@H](Cc1ccccc1)NC(=O)[C@@H](NC(=O)CNC(=O)[C@H](CCC(=O)O)NC(=O)C(C)(C)NC(=O)[C@@H](N)Cc1ccc(O)cc1)[C@@H](C)O)[C@@H](C)O)C(=O)N[C@@H](CC(=O)O)C(=O)N[C@@H](CCCCN)C(=O)N[C@@H](CCCNC(=N)N)C(=O)N[C@@H](C)C(=O)N[C@@H](C)C(=O)N[C@@H](CCC(N)=O)C(=O)N[C@@H](CC(=O)O)C(=O)N[C@@H](Cc1ccccc1)C(=O)N[C@H](C(=O)N[C@@H](CCC(=O)O)C(=O)N[C@@H](Cc1c[nH]c2ccccc12)C(=O)N[C@@H](CC(C)C)C(=O)N[C@@H](CCCCN)C(=O)N[C@@H](C)C(=O)NCC(=O)NCC(=O)N1CCC[C@H]1C(=O)N[C@@H](CO)C(=O)N[C@@H](CO)C(=O)NCC(=O)N[C@@H](C)C(=O)N1CCC[C@H]1C(=O)N1CCC[C@H]1C(=O)N1CCC[C@H]1C(=O)N[C@@H](CO)C(N)=O)[C@@H](C)CC)C(=O)O
Human GLP-1 receptor
  EC50 hGLP-1 R: 0.006 nM
Human glucagon receptor
  EC50 hGLUC R: 1.67 nM
Human GIP receptor
  EC50 hGIP R: 0.0119 nM
